Source: the DeepSol protein solubility set

Test: soluble on expression in E. coli; label from the status in PepcDB or PDB records

| Sequence | soluble on expression in E. coli |
| --- | --- |
| MGSDKIHHHHHHMTPEMYADKYREYASAMPTFQKSIFDQNPIYKIASGPDGNKPIERVKWTKDFLKAFSRYRQPGINAMDLHFYNWNIEHESDTPTDFGEDDWYRVINGTRELDQIINQQADLIKEGLQNIPQPESSLDHRLDRIDLVVGEWGNWHRTAFTAKPALKQQVTMRDAISTALMLDILQKNSDKVTMACVAQTINVLNALILTEGDQTILTPNYDVFMMYKAHRGNSALKIQTNQDQKNVYTFASKKDGEIILDVINANLNDQVKLTVELNREIESISKDFLQSDRPTDFNSSDNPDLIRMQQTEVKDFSKGEITLELSPASVNVFHIKTID | not soluble |
| MKVIDLSQTFENNMSQFPGTPKIQLKAVTSVEESGYQVTDFHSVVHVGTHCDAPAHFISGATTIDQLPLDQFVGEAVLIDVTHIQERKLPKTVLHNTDIKEGDIVIFHSNLSTKWNTEAYEKEAFYLSEELAKELVRLKVKSIGLDFISPDEVTTETSPIHHILLGNDIYLIENLTNLDAIEEKRFFFSAAPLKIKNSDGAFARAFAVIFLEHHHHHH | soluble |
| MTLIILEGPDCCFKSTVAAKLSKELKYPIIKGSSFELAKSGNEKLFEHFNKLADEDNVIIDRFVYSNLVYAKKFKDYSILTERQLRFIEDKIKAKAKVVYLHADPSVIKKRLRVRGDEYIEGKDIDSILELYREVMSNAGLHTYSWDTGQWSSDEIAKDIIFLVELEHHHHHH | soluble |
| MIKCIYIVCALNDNTIYSTLHYMEYSIQRGEIYMKIIKRSGSEDIFDAAKIVAAIRKANDSVLDYEKLTADQIEEIASNVETACENMKRSPSVEEIQDMVENQLMNKRAFTVARNYITYRYKRAIVRKSNST | not soluble |
| MGSDKIHHHHHHMRDTWRWTMTQNKRSGNRRTPTPELDSASLVPPTVPSVVDDVEGGKPNTVEFRATYSPLRVEFHPWANSHPEIDEEYLFLYWNDVLVDKKTFSKPIEPEELFILVPVDKLIEGPHRLHYEVTLYSDTHVSSRPLDIYIDKTPPLLPADDRLMLPDYVIREGVTEEYLAANGDKLVCTVPSFIGAEPGDVVKWFYSENGAGQEMVDMMTLTQEHIETLGPLGTSKPLELTFPGAFIRQSGNGTRYVRYEVQDRAGTQPQRALAVALESDLSLAPRELPPPRIKEAKGSDYQSTLEPGNAFDGVTFVIPDDADIRPNETVTVFWGQPGTLGGYSTSTPISPGALEYLIPSQYVPPHMSGRVELYYQIDKPDVPPSPSHYVTVRKIEGLPIVQCSDIRNRALNLRTLGESTTFTLESWPFRHTSQFVNAWIDGVESGNVTREIRLPIATALPVPSETGVMVLGSVTKTELLRLAINYQFRVSVEVSFDDKLSWLKFPDAAAQLEDKP | not soluble |
| MGYASKLALKICLASLCLFSALGAEHLEQKRNYIYKGEEAYNNKEYERAASFYKSAIKNGEPLAYVLLGIMYENGRGVPKDEKKAAEYFQKAVDNDIPRGYNNLGVMYKEGRGVPKDEKKAVEYFRIATEKGYTNAYINLGIMYMEGRGVPSNYVKATECFRKAMHKGNVEAYILLGDIYYSGNDQLGIEPDKDKAIVYYKMAADMSSSRAYEGLAESYQYGLGVEKDKKKAEEYMQKACDFDIDKNCKKKNTSSRLEHHHHHH | soluble |
| GPGSMKPATIPHGKNDAEGAGARMYEGMNTLQKEELNDYLISQMGPGTKWHDEMSDVVNTIIRQRSINGEPLDVHDVLSEALPHCQLAISHEVRDGLFRRIAGMCTTTDV | soluble |
| MGSDKIHHHHHHMNAALWISKTGLDAQTKDIAVISNNLANASTIGFKKSRAVFEDLLYQNINQPGGRTAQDTEAPSGLMLGAGTKVVATQKIHTQGDMITSDNALDLMIQGEGFFEIQMPDGSSAYSRNGQFTMDDEGNMVTPGAGYMIQPQVTIPEDALSIIVSQDGEVSVTLQGQPDPAVVGQINLINFVNPTGLQPIGQNLYTETAVSGAPQEGVPGLEGYGMLVQGALETSNVNTTEELVNLIESQRVYEMNSKVISAVDEMLSYINQQM | not soluble |
| MGSDKIHHHHHHMALNKPKIVILGAGYGGLMTVTRLTKYVGPNDADITLVNKHNYHYETTWMHEASAGTLHHDRCRYQIKDVINQSRVNFVQDTVKAIKIDEKKVVLANGELQYDYLVIGLGAVPETFGIKGLKEYAFPIANINTSRLLREHIELQFATYNTEAEKRPDRLTIVVGGAGFTGIEFLGELAARVPELCKEYDVDRSLVRIICVEAAPTVLPGFDPELVDYAVHYLEENGVEFKIGTAVQECTPEGVRVGKKDEEPEQIKSQTVVWAAGVRGHPIVEEAGFENMRGRVKVNPDLRAPGHDNVFILGDSSLFMNEDTERPYPPTAQIAMQQGITVAKNLGRLIKGGELEEFKPDIKGTVASLGEHNAVGVVYGRKLKGTPASFMKKVIDNRSLFMIGGLGLTLKKGKFKFF | not soluble |
| MFMREIELRGHIIDSLILPKVFDKILDMGGDYKVLEFEIGKRKTDPSYAKILVIGRDERHVDEILNELRDLGAEIPEIEEVELQPAEKDMVLPEGFYSTTNHKTFIRFKGKWIEVENQKMDGAIVVYPDEMRAEVKTIRNIKKGDLVVVGHKGVRVIPPEKPREGGGLFEFMKSDASSEKPKETIIRRIAKEMYEIREKYRKTGKGGIVVVGGPAIIHTGAGWALAKLIRMGYVQALFAGNALATHDIESVLYGTSLGVDLKTGKSVPGGHSHHLRAINTIMRAGSIKDAVEQGILKEGVMYECIKNNIPYVLAGSIRDDGPLPDVITDVVKAQEKMRELLKGKDMVLMLSTMLHSIATGNLLPSWVKTICVDINPAVVTKLMDRGTSQALGIVTDVGVFLPMLVEELEKLEKEKEKSEKREELEHHHHHH | soluble |
| MSLDDKATKPHDRLAQALAEDMAAVNALIRERMSSEHAPRIPEVTAHLIEAGGKRLRPMLTLAAARLVGYGGPFHVHLAATVEFIHTATLLHDDVVDESRQRRGRPTANLLWDNKSSVLVGDYLFARSFQLMTDTGNMRVMEILANASAVIAEGEVLQLTAAQNLATTEDIYLRVIRGKTAALFSAATEVGGIIGGAPEDQVQALFDYGDALGIAFQIVDDLLDYGGKSAEIGKNTGDDFRERKLTMPVIKAVALADEAERAFWKRVIEKGDQQDGDLEHAMALMTKHGTLEATRLAAIGWTDTARKALAKLPDHPLRQMLDDLADYVVERVREGHHHHHH | soluble |
| MGSSHHHHHHSSGLEVLFQGPHMSYQVLARKWRPQTFADVVGQEHVLTALANGLSLGRIHHAYLFSGTRGVGKTSIARLLAKGLNCETGITATPCGVCDNCREIEQGRFVDLIEIDAASRTKVEDTRDLLDNVQYAPARGRFKVYLIDEVHMLSRHSFNALLKTLEEPPEHVKFLLATTDPQKLPVTILSRCLQFHLKALDVEQIRHQLEHILNEEHIAHEPRALQLLARAAEGSLRDALSLTDQAIASGDGQVSTQAVSAMLGTLDDDQALSLVEAMVEANGERVMALINEAAARGIEWEALLVEMLGLLHRIAMVQLSPAALGNDMAAIELRMRELARTIPPTDIQLYYQTLLIGRKELPYAPDRRMGVEMTLLRALAFHPRMPLPEPEVPRQ | soluble |
| MAHHHHHHMNGNHGEPGTERENRSSADEAPKGDAFFDPSAEQYLVISPRQKLNPVLKKINRVRYKFSNIIPDFLIGKNNACLFISMKYHRLRSNYLKARIETLSNKYSNRILLCLVDIENIENSLGEINQLAFCFNMTLILCWSTEECARVIEDFKIYEKKISYIRNNKLTSTHAEKIHELLKKIRCINSSDCATITNKFKSFKNIVTAKKDDLINCSGLGNKKIQALISAFNDPFF | soluble |
